{"source": "patent US8309523", "about": "(VIB VZW, dated 2012)", "key": {"Z-GASR-CHO": {"test_system": "T1, Z-GASR-CHO", "T1 sequence": "GASR"}, "[1]": {"biological_target": "T2, [35S]methionine-labeled human A20 (in vitro translated) (UniProt P21580)", "T2 sequence": "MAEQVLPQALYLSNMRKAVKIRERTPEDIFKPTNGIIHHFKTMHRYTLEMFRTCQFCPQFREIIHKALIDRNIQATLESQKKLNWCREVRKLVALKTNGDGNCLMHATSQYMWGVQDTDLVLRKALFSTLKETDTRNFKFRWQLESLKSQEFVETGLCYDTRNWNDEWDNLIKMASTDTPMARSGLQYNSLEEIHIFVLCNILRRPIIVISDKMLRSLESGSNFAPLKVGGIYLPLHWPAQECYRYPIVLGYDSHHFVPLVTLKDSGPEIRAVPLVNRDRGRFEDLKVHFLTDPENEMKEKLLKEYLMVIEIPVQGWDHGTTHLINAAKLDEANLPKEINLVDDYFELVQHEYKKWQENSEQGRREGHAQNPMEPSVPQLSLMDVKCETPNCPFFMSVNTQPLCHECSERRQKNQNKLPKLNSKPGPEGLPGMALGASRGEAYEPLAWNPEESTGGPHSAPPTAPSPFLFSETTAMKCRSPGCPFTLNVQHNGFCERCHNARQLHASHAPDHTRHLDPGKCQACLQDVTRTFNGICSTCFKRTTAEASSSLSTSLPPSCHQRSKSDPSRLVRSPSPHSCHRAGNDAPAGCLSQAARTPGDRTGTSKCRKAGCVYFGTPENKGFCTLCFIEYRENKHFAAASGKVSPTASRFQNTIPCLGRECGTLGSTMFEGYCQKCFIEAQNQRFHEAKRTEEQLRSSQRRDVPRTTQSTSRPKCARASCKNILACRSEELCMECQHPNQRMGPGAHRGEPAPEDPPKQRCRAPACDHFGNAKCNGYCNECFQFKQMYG"}, "Ac-LSSR-AMC": {"test_system": "T3, Ac-LSSR-AMC", "T3 sequence": "LSSR"}, "Z-LSSR-CHO": {"test_system": "T4, Z-LSSR-CHO", "T4 sequence": "LSSR"}}}
{"substance": "MALT1C-gyraseB", "values": [{"measurement": "Ac-LSSR-AMC cleavage by recombinant MALT1", "setting": "Z-GASR-CHO", "value": "adding Z-LSSR-CHO (see SEQ ID NO:1) or Z-GASR-CHO (see SEQ ID NO:2) completely blocked the proteolytic activity of recombinant MALT1"}, {"measurement": "in vitro cleavage of radiolabeled A20 (SDS-PAGE, autoradiography; 500, 1000 or 1500 nM enzyme)", "setting": "[1]", "value": "In vitro incubation of radiolabeled A20 with recombinant MALT1C-gyraseB resulted in the generation of an A20 fragment of approximately 50 kDa"}, {"measurement": "cleavage of Ac-LSSR-AMC in vitro (fluorescence release)", "setting": "Ac-LSSR-AMC", "value": "the recombinant MALT1 p20 fragment (Sun et al., 2004) efficiently cleaved the Ac-LSSR-AMC (see SEQ ID NO:1) substrate"}, {"measurement": "Ac-LSSR-AMC cleavage by recombinant MALT1", "setting": "Z-LSSR-CHO", "value": "adding Z-LSSR-CHO (see SEQ ID NO:1) or Z-GASR-CHO (see SEQ ID NO:2) completely blocked the proteolytic activity of recombinant MALT1"}]}
